Laboratory results published in the supplement of paper PMC6757056.
± gives the standard deviation of the averaged measurements.

B1: library; a variant is named by its letters at N, in order (parent)
chain: GCUGUCACCGGUGCUUGGUACGUUAUAUUCAGCCGGUCUGAUGAGUCUNNNNNNAGACGAAACAGC

What was measured:
(6R,S)-folinic acid [1] = variants of: B1; test: normalized RNA/DNA level without ligand (relative to sTRSVctl = 100) (log10 (% of sTRSVctl)); HEK293T overexpressing SLC46A1; higher = less ribozyme self-cleavage, higher mRNA level; conditions: without (6R,S)-folinic acid; ligand present: no
Outline: (§1)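 For each 6-well well, 4 µg of library plasmid encoding mCherry-linked ribozyme switches, or eGFP-linked ones in some ligand experiments, was transfected into HEK293T. Any ligand was added 1 h before transfection, and RNA was extracted with EDTA 72 h after it, then reverse-transcribed, amplified, barcoded and sequenced. RNA level was obtained by dividing RNA reads by DNA reads, normalizing to a spiked-in non-cleaving sequence or to the top sequences, then scaling and log-transforming. The top set was 25 sequences, scaling was ×100 with log10, and ≥100 DNA reads were required.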

(6R,S)-folinic acid [2] = variants of: B1; test: normalized RNA/DNA level with ligand (relative to sTRSVctl = 100) (log10 (% of sTRSVctl)); HEK293T overexpressing SLC46A1; ligand concentration (+) RNA-Seq: 6 mM; higher = less ribozyme self-cleavage, higher mRNA level; conditions: with (6R,S)-folinic acid; ligand present: yes
Outline: as §1

| Variant | normalized RNA/DNA level without ligand (log10) ((6R,S)-folinic acid [1]) | normalized RNA/DNA level with ligand (log10) ((6R,S)-folinic acid [2]) |
| --- | --- | --- |
| UCGCAG | 1.921 ± 0.0076 | 2.01 ± 0.024 |
| UCGCAA | 1.973 ± 0.017 | 1.998 ± 0.018 |
| UCGCAC | 2.04 ± 0.025 | 2.03 ± 0.048 |
| UCGAUC | 2.06 ± 0.025 | 2.03 ± 0.026 |
| UCGAUU | 2.02 ± 0.03 | 2.04 ± 0.053 |
| GCGCAG | 2 ± 0.022 | 2.03 ± 0.027 |
| GCGCAU | 1.9847 ± 0.0014 | 2 ± 0.038 |
| GCGCAA | 1.948 ± 0.0028 | 1.98 ± 0.027 |
| CCCUUG | 2.069 ± 0.0099 | 2.091 ± 0.017 |
| CCCUUU | 2.06 ± 0.024 | 2.06 ± 0.044 |
| CCCUUA | 2.065 ± 0.0096 | 2.08 ± 0.064 |
| ACGCAG | 1.934 ± 0.018 | 2.01 ± 0.027 |
| ACGCAU | 1.987 ± 0.012 | 2.01 ± 0.014 |
| ACGCAA | 1.988 ± 0.011 | 2.01 ± 0.031 |
| ACGCAC | 2.024 ± 0.016 | 2.03 ± 0.027 |
| CCGACA | 2.02 ± 0.029 | 2.04 ± 0.035 |
| CCGACG | 2.033 ± 0.013 | 2.0354 ± 0.0001 |
| CCGACC | 2.063 ± 0.0099 | 2.04 ± 0.062 |
| CCGACU | 2.062 ± 0.0038 | 2.01 ± 0.027 |
| GCCUUU | 2.04 ± 0.032 | 2.05 ± 0.044 |
| GCCUUC | 2.05 ± 0.042 | 2.062 ± 0.012 |
| GCCUUG | 1.994 ± 0.0032 | 2.03 ± 0.033 |
| CCGAAC | 2.035 ± 0.0081 | 2.02 ± 0.049 |
| CCGAAA | 2.0005 ± 0.0006 | 2 ± 0.016 |
| CCGAAU | 2.002 ± 0.013 | 2.019 ± 0.018 |
| UCGAGA | 2.006 ± 0.0024 | 2.07 ± 0.049 |
| UCGAGG | 1.938 ± 0.017 | 2 ± 0.025 |
| UCGAGC | 2.022 ± 0.017 | 2.026 ± 0.011 |
| CCCUAU | 2.0351 ± 0.0014 | 2.05 ± 0.038 |
